According to patent US20150037339A1 (Regeneron, published 2015):

T1: Activin AB (human, UniProt P08476 311-426; P09529 293-407)
T1 construct: Heterodimer of one betaA and one betaB subunit; bought (R&D Systems #1006-AB-005 / #1066-AB)
T1 chain 1: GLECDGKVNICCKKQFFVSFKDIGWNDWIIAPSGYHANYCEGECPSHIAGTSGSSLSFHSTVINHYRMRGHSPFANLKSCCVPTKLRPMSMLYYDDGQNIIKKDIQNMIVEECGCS
T1 chain 2: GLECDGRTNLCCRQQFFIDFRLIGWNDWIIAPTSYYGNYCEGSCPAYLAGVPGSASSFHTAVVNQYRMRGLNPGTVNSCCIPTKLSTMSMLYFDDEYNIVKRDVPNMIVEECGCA

T2: Activin AC (human, UniProt P55103 237-352)
T2 construct: Heterodimer of one betaA and one betaC subunit; bought (R&D Systems #4879-AC)
T2 sequence 1: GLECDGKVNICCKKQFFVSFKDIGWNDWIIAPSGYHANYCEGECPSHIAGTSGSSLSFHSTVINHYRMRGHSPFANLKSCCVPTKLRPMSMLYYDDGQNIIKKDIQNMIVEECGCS
T2 sequence 2: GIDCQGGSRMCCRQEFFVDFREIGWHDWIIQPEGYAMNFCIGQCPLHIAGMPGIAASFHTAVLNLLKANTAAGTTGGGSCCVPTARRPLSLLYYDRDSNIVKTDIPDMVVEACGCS

T3: Activin A (human, UniProt P08476 311-426)
T3 sequence: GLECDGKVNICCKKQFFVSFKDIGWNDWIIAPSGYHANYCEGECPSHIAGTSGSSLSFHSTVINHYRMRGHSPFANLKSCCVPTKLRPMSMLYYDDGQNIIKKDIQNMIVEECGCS

T4: Activin A (human, UniProt P08476 311-426)
T4 construct: Homodimer of two βA subunits; bought from R&D Systems (#338-AC); also called inhibin-βA dimer; human Activin A
T4 sequence: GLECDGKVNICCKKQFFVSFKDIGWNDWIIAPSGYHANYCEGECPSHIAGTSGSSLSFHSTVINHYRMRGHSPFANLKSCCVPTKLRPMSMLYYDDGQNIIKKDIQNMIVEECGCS


What was measured:
[1] = molecular target: T1, Activin AB; test: SPR (Biacore), mAb captured on anti-Fc, Activin AB injected, 25 C
Protocol: (§1) Antibody-antigen association was monitored for 240 seconds while dissociation in buffer was monitored for 600 seconds. Kinetic association and dissociation rate constants were determined by processing and fitting the data using Scrubber software version 2.0c. Binding equilibrium dissociation constants (KD) and dissociative half-lives (t_{1/2}) were then calculated from the kinetic rate constants as: KD (M)=kd/kₐ and t_{1/2} (min)=[ln 2/(60*kd)]. (NB=no binding observed under the conditions used; NT=not tested).

[2] = molecular target: T2, Activin AC; test: SPR (Biacore), mAb captured on anti-Fc, Activin AC injected, 25 C
Protocol: as §1

[3] = molecular target: T2, Activin AC; test: cell-based or functional assay
[4] = molecular target: T3, Activin A; test: cell-based or functional assay
[5] = molecular target: T1, Activin AB; test: cell-based or functional assay
[6] = molecular target: T1, Activin AB; test: SPR (Biacore), mAb captured on anti-Fc, Activin AB injected, 37 C
Protocol: as §1

[7] = molecular target: T2, Activin AC; test: SPR (Biacore), mAb captured on anti-Fc, Activin AC injected, 37 C
Protocol: as §1

[8] = molecular target: T4, Activin A; test: SPR, captured mAb, 25C; no dissociation observed, kd fixed
Protocol: as §1

[9] = molecular target: T4, Activin A; test: SPR, captured mAb, 37C
Protocol: as §1

[10] = molecular target: T4, Activin A; test: SPR, captured mAb, 37C; no dissociation observed, kd fixed
Protocol: as §1

[11] = molecular target: T4, Activin A; test: SPR, captured mAb, 25C
Protocol: as §1

| 50 nM Ag Bound (RU) [1] | Kd [1] | koff [1] | kon [1] | t1/2 [1] | 50 nM Ag Bound (RU) [2] | Kd [2] | koff [2] | kon [2] | t1/2 [2] | IC50 [M], inhibition of 4 nM Activin AC in A204/CAGAx12-Luc Smad2/3-luciferase bioassay [3] | IC50 [M], inhibition of 100 pM Activin A in A204/CAGAx12-Luc Smad2/3-luciferase bioassay [4] | IC50 [M], inhibition of 30 pM Activin AB in A204/CAGAx12-Luc Smad2/3-luciferase bioassay [5] | 50 nM Ag Bound (RU) [6] | Kd [6] | koff [6] | kon [6] | t1/2 [6] | 50 nM Ag Bound (RU) [7] | Kd [7] | Binder | further results |
| --- | --- | --- | --- | --- | --- | --- | --- | --- | --- | --- | --- | --- | --- | --- | --- | --- | --- | --- | --- | --- | --- |
| 34.7 RU | 0.556 nM | 0.00209 s⁻¹ | 3.76e+06 M⁻¹ s⁻¹ | 5.5 min | 17.2 RU | 7.41 nM | 0.00592 s⁻¹ | 798000 M⁻¹ s⁻¹ | 2 min | 3.4e-09 M | 3.9e-11 M | 2.3e-09 M | 34.5 RU | 0.88 nM | 0.00443 s⁻¹ | 5.03e+06 M⁻¹ s⁻¹ | 2.6 min | 10.7 RU | 17.3 nM | H4H10468P2 (antibody, human IgG4, V domains shown) VH: QVQLQESGPGLVKPSETLSLTCTVSGGSFSSHFWSWIRQPPGKGLEWIGYIYYSGGTHYNPSLESRVTISVDTSKNQFSLKLNSVTAADTAVYYCARARSGITFGGLIVPGSFDIWGQGTMVTVSS VL: not shown | koff [7]: 0.0124 s⁻¹; kon [7]: 719000 M⁻¹ s⁻¹; t1/2 [7]: 0.9 min |
| – | – | – | – | – | – | – | – | – | – | – | – | – | – | – | – | – | – | – | – | H4H10445P2 (antibody, human IgG4, V domains shown) VH: QVQLQESGPGLVKPSETLSLICSVSGGSFSSHFWSWIRQPPGKGLEWIGYVLYSGGTNYNPSLKSRVTISVDTSKNQFFLKLSSVTAADTADYYCARAISGITFGGIIVPGSFDIWGQGTMVTVSS VL: not shown | koff [8]: ≤ 5e-05 s⁻¹; Activin A-20 nM (RU) [9]: 36 RU; Kd [9]: ≤ 0.0115 nM; kon [9]: 4.33e+06 M⁻¹ s⁻¹; t1/2 [9]: ≥ 231 min; koff [10]: ≤ 5e-05 s⁻¹; Activin A-20 nM (RU) [11]: 43 RU; Kd [11]: ≤ 0.0208 nM; kon [11]: 2.4e+06 M⁻¹ s⁻¹; t1/2 [11]: ≥ 231 min |
| – | – | – | – | – | – | – | – | – | – | – | – | – | – | – | – | – | – | – | – | H4H10447P2 (antibody, human IgG4, V domains shown) VH: QVQLQESGPGLVKPSETLSLTCSVSGGSFSSHFWSWIRQPPGKGLEWIGYIHYSGGTNYNPSLKSRVTISVDTSKNQFSLKLTSVTAADTADYYCARAISGITFGGMIVPGSFDVWGEGTMVTVSS VL: not shown | koff [8]: ≤ 5e-05 s⁻¹; Activin A-20 nM (RU) [9]: 36 RU; Kd [9]: ≤ 0.0107 nM; kon [9]: 4.69e+06 M⁻¹ s⁻¹; t1/2 [9]: ≥ 231 min; koff [10]: ≤ 5e-05 s⁻¹; Activin A-20 nM (RU) [11]: 43 RU; Kd [11]: ≤ 0.0212 nM; kon [11]: 2.36e+06 M⁻¹ s⁻¹; t1/2 [11]: ≥ 231 min |
| 38.3 RU | 0.568 nM | 0.00227 s⁻¹ | 4e+06 M⁻¹ s⁻¹ | 5.1 min | 34.9 RU | 2.98 nM | 0.00187 s⁻¹ | 629000 M⁻¹ s⁻¹ | 6.2 min | 2.8e-09 M | 1.1e-10 M | 8e-10 M | 44.4 RU | 1.1 nM | 0.00592 s⁻¹ | 5.4e+06 M⁻¹ s⁻¹ | 2 min | 34.6 RU | 12.5 nM | H4H10432P2 (antibody, human IgG4, V domains shown) VH: EVQLVESGGGLVQPGRSLTLSCAVSGFTFDDHAMHWVRQAPGKGLEWVSGISWNSVSIGYADSVKGRFTISRDNAKTSLYLQMNSLRVDDTALYYCVQDLNDILTGYPLFDFWGQGTLVTVSS VL: not shown | koff [7]: 0.00902 s⁻¹; kon [7]: 722000 M⁻¹ s⁻¹; t1/2 [7]: 1.3 min |
| 14.7 RU | 33.1 nM | 0.0203 s⁻¹ | 613000 M⁻¹ s⁻¹ | 0.6 min | -0.8 RU | – | – | – | – | – | 2e-10 M | – | 21.7 RU | 24.2 nM | 0.0213 s⁻¹ | 880000 M⁻¹ s⁻¹ | 0.5 min | 0 RU | – | H4H10423P (antibody, human IgG4, V domains shown) VH: QVQLQQSGPGLLKPSQTLSLTCAISGDSVSSNSAAWSWIRQSPSRGLEWLGRTYYRANWFNDYALSVKSRITINPVTSTNHFSLQLHSVTPEDTAVYYCAREGALGYYFDSWGQGTLVTVSS VL: not shown | – |
